Reference: patent publication US20040038894A1, “Compounds for modulating cell negative regulations and biological applications thereof” (INSTITUT NATIONAL DE LA SANTE ET DE LA RECHERCHE MEDICALE …, priority 1996, published 2004)
Where no end group is shown, it is not given here. [ ]: non-standard residue; d: D form. The star is where a group is joined. Biotin = O=C1N[C@H]2[C@H](CS[C@H]2CCCCC(=O)*)N1; pY = N[C@@H](Cc1ccc(OP(=O)(O)O)cc1)C(=O)O

How the values were obtained:
[1] = molecular target: phosphorylated NKG2A C-term peptide (C-terminal ITIM) (human); assay: SPR (BIAcore), 25 RU phosphopeptide on streptavidin chip, GST fusion injected
[2] = molecular target: phosphorylated NKG2A N-term peptide (N-terminal ITIM) (human); assay: as above
[3] = molecular target: phosphorylated NKG2A N-term peptide (N-terminal ITIM) (human); assay: SPR (BIAcore); lower end of the range, tied by Table 4 to GST-SHP-2.SH2(N+C) and the N-terminal ITIM (1.38)
[4] = molecular target: phosphorylated NKG2A N-term peptide (N-terminal ITIM) (human); assay: SPR (BIAcore); upper end of the range, tied by Table 4 to GST-SHP-1.SH2(N+C) and the N-terminal ITIM (4.80)
[5] = molecular target: T1, human NKG2A on NKL, M117-14 and 7-10 cells (human, UniProt P26715 1-233); assay: immunoprecipitation with anti-NKG2A and anti-CD94 mAb
T1 construct: whole, on cells
T1 sequence (P26715 whole entry): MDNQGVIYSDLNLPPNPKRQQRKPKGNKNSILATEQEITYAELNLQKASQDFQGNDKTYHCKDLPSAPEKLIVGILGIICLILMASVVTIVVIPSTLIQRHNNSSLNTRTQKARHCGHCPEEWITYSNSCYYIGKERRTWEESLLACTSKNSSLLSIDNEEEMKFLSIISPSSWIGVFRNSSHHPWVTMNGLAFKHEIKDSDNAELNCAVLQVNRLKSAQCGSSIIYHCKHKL

[6] = molecular target: T2, SHP-1 protein tyrosine phosphatase from RBL-2H3 cell lysates (rat (cell line RBL-2H3), UniProt P81718 1-613); assay: cell lysate adsorption to peptide beads, immunoblot (RBL-2H3)
T2 construct: Detected by immunoblot with anti-SHP-1 mAb
T2 sequence (P81718 whole entry): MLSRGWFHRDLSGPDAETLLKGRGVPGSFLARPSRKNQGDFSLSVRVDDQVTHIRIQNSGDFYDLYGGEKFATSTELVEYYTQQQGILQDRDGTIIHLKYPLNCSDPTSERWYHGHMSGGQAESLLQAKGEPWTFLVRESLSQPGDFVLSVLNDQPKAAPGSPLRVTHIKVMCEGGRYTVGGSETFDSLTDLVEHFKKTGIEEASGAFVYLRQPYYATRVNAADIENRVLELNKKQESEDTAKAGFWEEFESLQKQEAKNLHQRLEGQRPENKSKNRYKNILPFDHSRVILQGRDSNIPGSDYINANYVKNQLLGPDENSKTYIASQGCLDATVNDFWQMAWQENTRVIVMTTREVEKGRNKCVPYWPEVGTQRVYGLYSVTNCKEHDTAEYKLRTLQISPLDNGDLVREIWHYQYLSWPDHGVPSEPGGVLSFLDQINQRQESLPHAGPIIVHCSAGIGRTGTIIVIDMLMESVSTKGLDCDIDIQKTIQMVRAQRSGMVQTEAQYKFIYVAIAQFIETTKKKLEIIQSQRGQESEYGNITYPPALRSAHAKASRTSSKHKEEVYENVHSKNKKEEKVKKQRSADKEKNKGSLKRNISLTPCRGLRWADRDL

[7] = molecular target: T3, SHP-2 protein tyrosine phosphatase from RBL-2H3 cell lysates (rat (cell line RBL-2H3), UniProt P41499 2-593); assay: as above
T3 construct: Detected by immunoblot with anti-SHP-2 mAb
T3 sequence (looked up): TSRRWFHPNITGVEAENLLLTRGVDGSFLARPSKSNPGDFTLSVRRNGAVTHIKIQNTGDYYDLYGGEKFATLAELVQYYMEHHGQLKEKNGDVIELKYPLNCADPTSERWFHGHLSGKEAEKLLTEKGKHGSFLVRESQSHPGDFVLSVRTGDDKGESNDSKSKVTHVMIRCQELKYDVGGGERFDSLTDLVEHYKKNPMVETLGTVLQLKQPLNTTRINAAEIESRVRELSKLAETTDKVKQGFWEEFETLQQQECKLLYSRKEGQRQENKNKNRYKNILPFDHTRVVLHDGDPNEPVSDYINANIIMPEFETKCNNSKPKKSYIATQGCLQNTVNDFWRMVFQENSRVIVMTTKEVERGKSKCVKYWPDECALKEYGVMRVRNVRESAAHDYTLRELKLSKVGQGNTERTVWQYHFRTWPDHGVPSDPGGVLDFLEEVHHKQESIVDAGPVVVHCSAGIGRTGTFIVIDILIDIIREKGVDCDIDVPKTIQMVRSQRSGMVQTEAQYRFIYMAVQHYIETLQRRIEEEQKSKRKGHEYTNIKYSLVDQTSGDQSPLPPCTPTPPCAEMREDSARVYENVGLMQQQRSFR

[8] = molecular target: T4, GST-SHIP.SH2 fusion protein (murine, UniProt Q9ES52 8-104); assay: SPR (BIAcore) with recombinant GST fusion protein
T4 construct: also called SH2 domain of SHIP; not shown: Glutathione S-transferase (GST) fusion partner
T4 sequence (looked up): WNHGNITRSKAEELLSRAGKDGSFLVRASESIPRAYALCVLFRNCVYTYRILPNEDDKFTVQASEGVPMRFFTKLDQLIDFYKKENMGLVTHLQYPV
Experimental: Fusion proteins and surface plasmon resonance analysis. Surface plasmon resonance (SPR) measurements were performed on a BIAcore™ (Pharmacia). The GST-SHP-1.SH2(NC), GST-SHP-1.SH2(N), GST-SHP-1.SH2(C), GST-SHIP.SH2 fusion proteins generated from the murine phosphatase cDNA, were purified from DH5α lysates. Briefly, overnight culture at 37° C. in LB medium containing 50 μg/ml ampicillin was diluted 1/10 in fresh medium, and incubated until the absorbance at 600 nm reaches 1-2. At that point, IPTG was added (1 mM), and incubation continued for an additional 4 hours at 37° C. After centrifugation, bacteria pellet was resuspended in TENGN buffer (50 mM Tris pH 8, 1 mM EDTA, 10% glycerol, 1% NP40, 1 mM DTT, 1 mM PMSF, 10 μg/ml aprotinin and 10 μg/ml leupeptine). Bacteria were lysed by sonication. After centrifugation, supernatant was incubated with Glutathione-Sepharose 4B beads (Pharmacia) overnight at 4° C. with slow shaking. After 3 washes with 50 mM Tris pH 8, elution of the fusion protein was carried out using 50 mM Tris pH 8 supplemented with 10 mM reduced glutathione. […] Protein purity was assessed by 12.5% SDS-PAGE, and Coomassie blue staining. […] Then, biotinylated peptides were injected, and their binding to streptavidine-coated microchips was assessed using anti-phosphotyrosine 4G10 mAb (UHI).

[9] = molecular target: T5, SHIP polyinositol phosphatase from RBL-2H3 cell lysates (rat (cell line RBL-2H3), UniProt P97573 1-1190, limits assumed); assay: cell lysate adsorption to peptide beads, immunoblot (RBL-2H3), FIG. 15A
T5 construct: Detected by immunoblot with anti-SHIP antiserum
T5 sequence (looked up): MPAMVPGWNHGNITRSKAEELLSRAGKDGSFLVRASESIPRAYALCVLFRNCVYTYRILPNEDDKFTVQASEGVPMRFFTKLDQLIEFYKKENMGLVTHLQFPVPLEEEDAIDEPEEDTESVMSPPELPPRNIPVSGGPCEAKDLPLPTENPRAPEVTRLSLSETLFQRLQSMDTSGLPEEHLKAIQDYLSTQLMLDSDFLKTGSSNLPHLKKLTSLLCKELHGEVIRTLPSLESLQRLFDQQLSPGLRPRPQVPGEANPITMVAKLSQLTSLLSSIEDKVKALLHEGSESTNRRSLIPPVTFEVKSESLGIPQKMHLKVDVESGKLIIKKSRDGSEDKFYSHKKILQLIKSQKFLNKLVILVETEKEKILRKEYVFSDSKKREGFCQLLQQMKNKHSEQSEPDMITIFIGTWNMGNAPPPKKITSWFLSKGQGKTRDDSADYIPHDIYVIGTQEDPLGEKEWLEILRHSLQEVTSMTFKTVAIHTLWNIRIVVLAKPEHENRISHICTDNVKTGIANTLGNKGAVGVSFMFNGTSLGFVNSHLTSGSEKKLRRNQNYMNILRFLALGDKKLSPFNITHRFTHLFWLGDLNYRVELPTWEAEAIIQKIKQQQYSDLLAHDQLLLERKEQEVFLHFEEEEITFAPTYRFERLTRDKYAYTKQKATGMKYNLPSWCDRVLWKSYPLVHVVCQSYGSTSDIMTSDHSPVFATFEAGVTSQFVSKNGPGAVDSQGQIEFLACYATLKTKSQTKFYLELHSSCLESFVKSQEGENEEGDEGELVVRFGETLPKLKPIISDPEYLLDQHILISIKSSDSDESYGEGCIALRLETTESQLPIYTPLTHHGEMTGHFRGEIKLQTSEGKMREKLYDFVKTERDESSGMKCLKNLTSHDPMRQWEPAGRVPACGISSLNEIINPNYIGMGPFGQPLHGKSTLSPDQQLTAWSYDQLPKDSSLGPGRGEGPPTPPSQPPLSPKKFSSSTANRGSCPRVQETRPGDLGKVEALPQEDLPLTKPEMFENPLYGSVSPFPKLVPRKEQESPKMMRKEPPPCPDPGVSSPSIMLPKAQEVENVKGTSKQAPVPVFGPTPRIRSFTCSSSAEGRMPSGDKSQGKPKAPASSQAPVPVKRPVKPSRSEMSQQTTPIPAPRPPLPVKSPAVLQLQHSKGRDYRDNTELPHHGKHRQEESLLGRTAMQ
Experimental: In an attempt to characterize the function of these putative ITIMs, cell lysates were incubated with phosphorylated and nonphosphorylated synthetic peptides corresponding to the N-terminal and the C-terminal I/VxYxxL stretches present in NKG2A intracytoplasmic domain. Cell lysates absorbed to peptides were then assayed by immunoblotting for the presence of the phosphatases known to interact with phosphorylated ITIMs, i.e. the protein tyrosine phosphatases SHP-1 and SHP-2, as well as the polyinositol phosphate phosphatase, SHIP. In parallel, lysates adsorption were performed using control peptides corresponding to ITIMs present in Ig-like ITIM bearing receptors such as human KIRs (p58.2/CD158b, a receptor for HLA-Cw3) and mouse FcγRIIB, as well as in mouse lectin-like ITIM-bearing receptor, such as Ly-49A.
As shown in FIG. 15A (lanes 1 and 2), both N- and C-terminal I/VxYxxL stretches present in NKG2A associate with SHP-1 and SHP-2 in vitro, but no binding to SHIP was detected. Similar patterns of association were obtained using the phosphorylated ITIM peptides of […] and p58.2 KIR (FIG. 15A, lanes 3 to 5). In contrast, FcγRIIB phosphorylated ITIM peptides also associate with SHIP (FIG. 15A, lane 6). No association of phosphatases with nonphosphorylated peptides corresponding to FcγRIIB (FIG. 15A, lane 7) and NKG2A N- and C-terminal I/VxYxxL stretches was detected. When nonphosphorylated and phosphorylated peptides were used to adsorb lysates prepared from ³⁵S methionine/cysteine-labeled cells, only two bands around 64 and 68 kDa selectively associate with both phosphorylated NKG2A N- and C-terminal I/VxYxxL stretches, as compared to nonphosphorylated ones (FIG. 15B). The 64 and 68 kDa proteins which bind to phosphorylated NKG2A peptides correspond to SHP-1 and SHP-2 apparent molecular weight respectively, supporting the immunoblotting results. Therefore, our results define the two NKG2A I/VxYxxL stretches as ITIMs which appear to function similarly to other ITIMs present in inhibitory receptors for MHC class I molecules, i.e. KIRs and Ly-49 molecules. Using recombinant soluble tandem SH2 domains of SHP-1 and SHP-2, we confirmed by surface plasmon resonance that both NKG2A ITIM phosphopeptides directly associate with the SH2 domains of SHP-1 and SHP-2, but not with the SH2 domain of SHIP (FIG. 16).

[10] = molecular target: T5, SHIP polyinositol phosphatase from …; assay: cell lysate adsorption to peptide beads, immunoblot (RBL-2H3)

GST-SHP-2.SH2(N+C) fusion protein (from UniProt P35235 1-220)
Kd [1]: 1.57 nM
koff [1]: 0.00132 s⁻¹
kon [1]: 840000 M⁻¹ s⁻¹
Kd [2]: 1.38 nM
koff [2]: 0.00142 s⁻¹
kon [2]: 1.03e+06 M⁻¹ s⁻¹
Kd [3]: 1 to 5 nM

GST-SHP-1.SH2(N+C) fusion protein (from UniProt P29351 1-217)
Kd [1]: 2.83 nM
koff [1]: 0.00117 s⁻¹
kon [1]: 410000 M⁻¹ s⁻¹
Kd [2]: 4.8 nM
koff [2]: 0.00189 s⁻¹
kon [2]: 390000 M⁻¹ s⁻¹
Kd [4]: 1 to 5 nM

B1: human CD94 on NKL, M117-14 and 7-10 cells (receptor, UniProt Q13241 1-179, looked up)
chain: MAVFKTTLWRLISGTLGIICLSLMSTLGILLKNSFTKLSIEPAFTPGPNIELQKDSDCCSCQEKWVGYRCNCYFISSEQKTWNESRHLCASQKSSLLQLQNTDELDFMSSSQQFYWIGLSYSEEHTAWLWENGSALSQYLFPSFETFNTKNCIAYNPNGNALDESCEDKNRYICKQQLI
notes: whole, on cells
binding result [5]: binds

Biotin-DEQDPQEAT[pY]AQLN (also called mutated KIR ITIM peptide) [phosphorylated p58.2.1-V301A peptide]
binding result [6]: no binding
binding result [7]: no binding

B2: phosphorylated p58.2.1 peptide (N-terminal KIR ITIM) (peptide)
peptide: Biotin-DEQDPQEVT[pY]AQLNH
notes: also called p58.183.1; phosphorylated N-terminal KIR ITIM peptide
binding result [8]: no binding
binding result [9]: no binding

Biotin-RPSQRPKTPPTDIIV[pY]TELPNAEP (also called p58.183.2; p58.133.2) [phosphorylated p58.2.2 peptide (C-terminal KIR ITIM)]
binding result [8]: no binding
binding result [9]: no binding

B3: phosphorylated FcγRIIB-I260A peptide (peptide)
peptide: Biotin-KTEAENTAT[pY]SLLK
notes: also called FcγRIIB 1-I260A; mutated FcγRIIB ITIM
binding result [6]: no binding
binding result [7]: no binding

B4: non-phosphorylated NKG2A N-term peptide (peptide)
peptide: Biotin-MDNQGVIYSDLNL
notes: also called nonphosphorylated NKG2A N-terminal I/VxYxxL stretch
binding result [10]: no binding
